The values that follow come from the RNAGym collection of RNA variant scans (doi:10.7554/elife.80360).

B1: Twister Ribozyme (parent)
chain: AACACUGCCAAUGCCGGUCCCAAGCCCGGAUAAAAGUGGAGGGGGCGG

This data set covers variants of B1. Briefly: self-cleavage, relative activity (ratio to wild type); higher = more cleavage; co-transcriptional.
Consider AACACUGCCAAUGCCGGUCCAAAGCCCGGAUAAAAUUGGAGGGGGCGG [C21A G36U], for which the self-cleavage turned out to be 0.0686.

Consider AACAGUGCCAAUGCCGGUCCCAAGCCCGGAUAAAAGUGGCGGGGGCGG [C5G A40C], for which the self-cleavage turned out to be 0.198.

AACAGUGCCAAUGGCGGUCCCAAGCCCGGAUAAAAGUGGAGGGGGCGG [C5G C14G]: the self-cleavage was 0.0784.

With AACACUGCCAAUGCGGGUCUCAAGCCCGGAUAAAAGUGGAGGGGGCGG [C15G C20U], the self-cleavage came to 0.0686.

AACUCUGCGAAUGCCGGUCCCAAGCCCGGAUAAAAGUGGAGGGGGCGG [A4U C9G]: the self-cleavage amounted to 0.0806.

With AACACUGCCAAUGCCGGUUCCAAGCCCGGAUAAAACUGGAGGGGGCGG [C19U G36C], the self-cleavage was found to be 0.129.

On to AACACUGACAAUGCCGGUGCCAAGCCCGGAUAAAAGUGGAGGGGGCGG [C8A C19G], for which the self-cleavage was 0.0926.

Regarding AACUCUGCCAAUGCCGGUCCCAAGCCAGGAUAAAAGUGGAGGGGGCGG [A4U C27A], the self-cleavage worked out at 0.0441.

Take AACACUGCCAAGGCCGCUCCCAAGCCCGGAUAAAAGUGGAGGGGGCGG [U12G G17C]: the self-cleavage was found to be 0.0934.

For the variant AACACUGCCAAUGCCGCUCUCAAGCCCGGAUAAAAGUGGAGGGGGCGG [G17C C20U], the self-cleavage came out at 0.0836.

For AACACUGCCAAUGCCGGUGCUAAGCCCGGAUAAAAGUGGAGGGGGCGG [C19G C21U], the self-cleavage was determined as 0.101.

Take AACACUGCCAGUGACGGUCCCAAGCCCGGAUAAAAGUGGAGGGGGCGG [A11G C14A]: the self-cleavage came to 0.941.

Take AACACUGCCUAUGCCGGUCCCAAGCCCGGAUAGAAGUGGAGGGGGCGG [A10U A33G]: the self-cleavage was determined as 0.825.

For the variant AACACGGCCAAUGCCGAUCCCAAGCCCGGAUAAAAGUGGAGGGGGCGG [U6G G17A], the self-cleavage came to 0.075.

Turning to AACACUACCAAUGCCGGUCCCAAGCCCGGAUUAAAGUGGAGGGGGCGG [G7A A32U], the self-cleavage was 0.507.

Turning to AACACUGCCAACGCCGGUCCCAAGCCCGGAUAAAUGUGGAGGGGGCGG [U12C A35U], the self-cleavage was found to be 0.91.

As for AACACUGCCAUUCCCGGUCCCAAGCCCGGAUAAAAGUGGAGGGGGCGG [A11U G13C], the self-cleavage was determined as 0.592.

On to AACACUAGCAAUGCCGGUCCCAAGCCCGGAUAAAAGUGGAGGGGGCGG [G7A C8G], for which the self-cleavage is 0.153.

Regarding AACACUGCCAAUGACGGUCCCAAGCCCGGGUAAAAGUGGAGGGGGCGG [C14A A30G], the self-cleavage was determined as 0.803.

Consider AACACUGCCAAUGCCGGUCCCAAGCCCGGAUAAAAGUCGAUGGGGCGG [G38C G41U], for which the self-cleavage is 0.304.

On to AACACUGCCAAUGCCGGUCCCAAGCCCGGAUAAAACUGGAGAGGGCGG [G36C G42A], for which the self-cleavage worked out at 0.134.

In the case of AACACCGACAAUGCCGGUCCCAAGCCCGGAUAAAAGUGGAGGGGGCGG [U6C C8A], the self-cleavage was determined as 0.047.

Take AACACUGCUAAUGCCGGUCCCAAGCCCUGAUAAAAGUGGAGGGGGCGG [C9U G28U]: the self-cleavage came to 0.504.

As to AACACUGGCAAUGCCGGUCCCAAGCCCGGAUAAAAGUGGAUGGGGCGG [C8G G41U], the self-cleavage worked out at 0.129.

As for AACACUGACAAUGCCGGUCCCAAGCCCGUAUAAAAGUGGAGGGGGCGG [C8A G29U], the self-cleavage is 0.295.

In the case of AACACUGCCAAUGCCGGUCCCAAACCCGGUUAAAAGUGGAGGGGGCGG [G24A A30U], the self-cleavage turned out to be 0.0686.

Take AACACUCCCAAUGCCGGUCCCAAGCCCGGAUAAAAGUGGAGGGGGCGG [G7C]: the self-cleavage stood at 0.0658.

On to AUCACUGCCACUGCCGGUCCCAAGCCCGGAUAAAAGUGGAGGGGGCGG [A2U A11C], for which the self-cleavage was 0.309.

As to AACACUGCCAAUGCCGGUCCUAAGCCCGGACAAAAGUGGAGGGGGCGG [C21U U31C], the self-cleavage was found to be 0.103.

Regarding AACUCUGCCAAUGCCGGUCCCAAGCCCGGAUAAAAGUGGAGGGGGCGG [A4U], the self-cleavage worked out at 0.136.

Regarding AACACUGCCAGUGCCGGUCCCAAGCCCGGAUAAAAGUUGAGGGGGCGG [A11G G38U], the self-cleavage came out at 0.613.

With AACACUGCCAAUGCCGGUCCAAAGCUCGGAUAAAAGUGGAGGGGGCGG [C21A C26U], the self-cleavage was 0.07.

For the variant AGCACUGCCAAUGCCGGUCCCAAGCCCGGACAAAAGUGGAGGGGGCGG [A2G U31C], the self-cleavage was 0.3.

With AACACUACCAAUGCCGGUCCCAAGCCCGGAUAUAAGUGGAGGGGGCGG [G7A A33U], the self-cleavage amounted to 0.269.

Regarding AACACUGCCAAUCCGGGUCCCAAGCCCGGAUAAAAGUGGAGGGGGCGG [G13C C15G], the self-cleavage came out at 0.0922.

As to AACACUGCCAACGCCGGUCCCAAGCCCGGUUAAAAGUGGAGGGGGCGG [U12C A30U], the self-cleavage amounted to 1.04.

As to AACACUCCCAAUGCCGGUCCCAAGCCCGGAUAAAGGUGGAGGGGGCGG [G7C A35G], the self-cleavage is 0.0589.

With AACACUGCCAAUGCCGGUCCCAACCCCGGAUAAAAGUGCAGGGGGCGG [G24C G39C], the self-cleavage is 0.0715.

For the variant AACACUGCCAAUGCCGGUUCCAAGCCCGGAUAAAAGUCGAGGGGGCGG [C19U G38C], the self-cleavage came out at 0.782.

On to AACACUGCCAAUGCCGUUCCAAAGCCCGGAUAAAAGUGGAGGGGGCGG [G17U C21A], for which the self-cleavage is 0.0909.

Regarding AACACUGCCCAUGCCGGUCCCAAGCCCGGAUAAAAGUGGAGGGGGCGG [A10C], the self-cleavage came out at 1.01.

Regarding AACACUGCCAAUGCCGACCCCAAGCCCGGAUAAAAGUGGAGGGGGCGG [G17A U18C], the self-cleavage came out at 0.221.

Take AGCACUGCCAAUGCUGGUCCCAAGCCCGGAUAAAAGUGGAGGGGGCGG [A2G C15U]: the self-cleavage worked out at 0.503.

Take AACACUGCCAAUGCCGGUCCCAAGCCCGGAUAAAAGUGGAUUGGGCGG [G41U G42U]: the self-cleavage was 0.125.

Regarding AACACUGCCAAUGCCGGUCCCACGCCCGGAUAAAAGUGGAGGGGGCCG [A23C G47C], the self-cleavage is 0.13.

For the variant AACACUACCAAUGCCAGUCCCAAGCCCGGAUAAAAGUGGAGGGGGCGG [G7A G16A], the self-cleavage turned out to be 0.226.

In the case of AACACUGCCAAUGCCGGUCCCCAGCCCGUAUAAAAGUGGAGGGGGCGG [A22C G29U], the self-cleavage turned out to be 0.89.

On to AACACUGCCAAUGCCGGUCCCAAGCCCGGAUAAAAGUGAAGGGGGCGA [G39A G48A], for which the self-cleavage is 0.388.

Regarding AACACUGCCAAUGCCGCUCCCAAGCCCGGAUAAAAGUGGAGGGGGGGG [G17C C46G], the self-cleavage came out at 0.139.

For the variant AAUACUGCCAAUGCCGGUCCCAAGCCGGGAUAAAAGUGGAGGGGGCGG [C3U C27G], the self-cleavage stood at 0.0437.

Regarding AACACUGCCAAUGCCUGUCCCAAGCCCGGAUAAAUGUGGAGGGGGCGG [G16U A35U], the self-cleavage is 0.948.

AACACUGCCAAAGCCGGUCCUAAGCCCGGAUAAAAGUGGAGGGGGCGG [U12A C21U]: the self-cleavage turned out to be 0.164.

In the case of AACACUGCCAAUGCCGGUCCCAAGCCCGGAUAAAAGUAGUGGGGGCGG [G38A A40U], the self-cleavage is 0.118.

In the case of AACAUUGCCAAUGCCGGUCCCAAGCCCGGAUAAAAGUGGAGGGGGCGA [C5U G48A], the self-cleavage amounted to 0.639.
